Data: patent US20130058937A1 (Hoffmann-La Roche, published 2013)

B1: 2+1 IgG Crossfab (N-terminal); VL/VH exchange (MCSP (LC007)/huCD3) (bispecific antibody)
chain 1: DIQMTQSPSSLSASVGDRVTITCRASQDIRNYLNWYQQKPGKAPKLLIYYTSRLESGVPSRFSGSGSGTDYTLTISSLQPEDFATYYCQQGNTLPWTFGQGTKVEIKSSASTKGPSVFPLAPSSKSTSGGTAALGCLVKDYFPEPVTVSWNSGALTSGVHTFPAVLQSSGLYSLSSVVTVPSSSLGTQTYICNVNHKPSNTKVDKKVEPKSCGGGGSGGGGSEVQLQESGPGLVKPSQSLSLTCSVTGYSITSGYYWNWIRQFPGNKLEWMGYITYDGSNNYNPSLKNRISITRDTSKNQFFLKLNSVTTEDTATYYCADFDYWGQGTTLTVSSASTKGPSVFPLAPSSKSTSGGTAALGCLVKDYFPEPVTVSWNSGALTSGVHTFPAVLQSSGLYSLSSVVTVPSSSLGTQTYICNVNHKPSNTKVDKKVEPKSCDKTHTCPPCPAPEAAGGPSVFLFPPKPKDTLMISRTPEVTCVVVDVSHEDPEVKFNWYVDGVEVHNAKTKPREEQYNSTYRVVSVLTVLHQDWLNGKEYKCKVSNKALGAPIEKTISKAKGQPREPQVCTLPPSRDELTKNQVSLSCAVKGFYPSDIAVEWESNGQPENNYKTTPPVLDSDGSFFLVSKLTVDKSRWQQGNVFSCSVMHEALHNHYTQKSLSLSPGK
chain 2: EVQLVESGGGLVQPGGSLRLSCAASGYSFTGYTMNWVRQAPGKGLEWVALINPYKGVSTYNQKFKDRFTISVDKSKNTAYLQMNSLRAEDTAVYYCARSGYYGDSDWYFDVWGQGTLVTVSSASVAAPSVFIFPPSDEQLKSGTASVVCLLNNFYPREAKVQWKVDNALQSGNSQESVTEQDSKDSTYSLSSTLTLSKADYEKHKVYACEVTHQGLSSPVTKSFNRGEC
chain 3: DIVLTQSPSSLSASLGDRVTISCSASQGIRNYLNWYQQRPDGTVKLLIYYTSSLHSGVPSRFSGSGSGTDYSLTISNLEPEDIATYYCQQYSKLPWTFGGGTKLEIKRTVAAPSVFIFPPSDEQLKSGTASVVCLLNNFYPREAKVQWKVDNALQSGNSQESVTEQDSKDSTYSLSSTLTLSKADYEKHKVYACEVTHQGLSSPVTKSFNRGEC
chain 4: not shown
notes: Two MCSP Fabs, one CD3 Crossfab fused to the N-terminus of one Fab; also called anti-MCSP/anti-huCD3; CD3-MCSP 2+1 IgG Crossfab (N-terminal)
B2: CD3-MCSP 1+1 CrossMab; CL/CH1 exchange (MCSP (LC007)/huCD3) (bispecific antibody)
chain 1: B1 chain 3
chain 2: DIQMTQSPSSLSASVGDRVTITCRASQDIRNYLNWYQQKPGKAPKLLIYYTSRLESGVPSRFSGSGSGTDYTLTISSLQPEDFATYYCQQGNTLPWTFGQGTKVEIKSSASTKGPSVFPLAPSSKSTSGGTAALGCLVKDYFPEPVTVSWNSGALTSGVHTFPAVLQSSGLYSLSSVVTVPSSSLGTQTYICNVNHKPSNTKVDKKVEPKSC
chain 3: not shown
chain 4: EVQLQESGPGLVKPSQSLSLTCSVTGYSITSGYYWNWIRQFPGNKLEWMGYITYDGSNNYNPSLKNRISITRDTSKNQFFLKLNSVTTEDTATYYCADFDYWGQGTTLTVSSASTKGPSVFPLAPSSKSTSGGTAALGCLVKDYFPEPVTVSWNSGALTSGVHTFPAVLQSSGLYSLSSVVTVPSSSLGTQTYICNVNHKPSNTKVDKKVEPKSCDKTHTCPPCPAPEAAGGPSVFLFPPKPKDTLMISRTPEVTCVVVDVSHEDPEVKFNWYVDGVEVHNAKTKPREEQYNSTYRVVSVLTVLHQDWLNGKEYKCKVSNKALGAPIEKTISKAKGQPREPQVCTLPPSRDELTKNQVSLSCAVKGFYPSDIAVEWESNGQPENNYKTTPPVLDSDGSFFLVSKLTVDKSRWQQGNVFSCSVMHEALHNHYTQKSLSLSPGK
B3: CD3-MCSP 1+1 IgG Crossfab (N-terminal) (SEQ ID NOs 1, 3, 4, 86) (bispecific antibody)
chain 1: B1 chain 1
chain 2: B1 chain 2
chain 3: B1 chain 3
chain 4: not shown
B4: 2+1 IgG Crossfab (N-terminal), inverted; CL/CH1 exchange (MCSP (LC007)/huCD3) (bispecific antibody)
chain 1: B1 chain 3
chain 2: B2 chain 2
chain 3: B2 chain 4
chain 4: not shown
notes: also called the inverted construct; CD3/MCSP 2+1 IgG Crossfab (N-terminal), inverted

Legend:
[1] = biological target: T1, human CD3, expressed by Jurkat cells (human, UniProt P07766 23-207); experiment: FACS on Jurkat cells, FITC/PE anti-human Fc secondary
T1 construct: whole, on cells; The assay presents the whole CD3 complex on Jurkat T cells; also called human CD3 on cells; huCD3
T1 sequence (P07766 23-207): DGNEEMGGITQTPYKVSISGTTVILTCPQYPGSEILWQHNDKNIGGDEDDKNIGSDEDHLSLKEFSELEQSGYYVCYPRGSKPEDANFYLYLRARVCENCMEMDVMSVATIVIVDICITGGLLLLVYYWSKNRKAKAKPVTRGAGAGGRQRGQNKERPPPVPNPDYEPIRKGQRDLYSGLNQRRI
Protocol: Binding of the different bispecific constructs to CD3 on Jurkat (ATCC #TIB-152) cells, and the respective tumor antigen MCSP on WM266-4 cells or CEA on LS174-T cells, was determined by FACS. Briefly, cells were harvested, counted and checked for viability. 0.15-0.2 million cells per well were plated in a round-bottom 96-well plate and incubated with the indicated concentration of the bispecific constructs and controls for 30 min at 4° C. For a better comparison, the constructs were normalized to same molarity. Cells were washed with PBS containing 0.1% BSA once. After incubation with a FITC- or PE-conjugated secondary antibody for 30 min at 4° C., bound constructs were detected using a FACSCantoII (Software FACS Diva). A FITC- or PE-conjugated AffiniPure F(ab′)2 Fragment goat anti-human IgG Fcγ Fragment Specific (Jackson Immuno Research Lab #109-096-098/working solution 1:20, or #109-116-170/working solution 1:80, respectively) was used. […] EC50 values were calculated using the GraphPad Prism 5 software.
As a control, the equivalent maximum concentration of the corresponding IgGs and the background staining due to the labeled 2ndary antibody (goat anti-human FITC-conjugated AffiniPure F(ab′)2 Fragment, Fcγ Fragment-specific, Jackson Immuno Research Lab #109-096-098) were assessed as well. […]

[2] = biological target: T2, human MCSP (Melanoma-associated Chondroitin Sulfate Proteoglycan), expressed on tumor cells (human, UniProt Q6UVK1 30-2322); experiment: cell-based or functional assay
T2 sequence (Q6UVK1 30-2322): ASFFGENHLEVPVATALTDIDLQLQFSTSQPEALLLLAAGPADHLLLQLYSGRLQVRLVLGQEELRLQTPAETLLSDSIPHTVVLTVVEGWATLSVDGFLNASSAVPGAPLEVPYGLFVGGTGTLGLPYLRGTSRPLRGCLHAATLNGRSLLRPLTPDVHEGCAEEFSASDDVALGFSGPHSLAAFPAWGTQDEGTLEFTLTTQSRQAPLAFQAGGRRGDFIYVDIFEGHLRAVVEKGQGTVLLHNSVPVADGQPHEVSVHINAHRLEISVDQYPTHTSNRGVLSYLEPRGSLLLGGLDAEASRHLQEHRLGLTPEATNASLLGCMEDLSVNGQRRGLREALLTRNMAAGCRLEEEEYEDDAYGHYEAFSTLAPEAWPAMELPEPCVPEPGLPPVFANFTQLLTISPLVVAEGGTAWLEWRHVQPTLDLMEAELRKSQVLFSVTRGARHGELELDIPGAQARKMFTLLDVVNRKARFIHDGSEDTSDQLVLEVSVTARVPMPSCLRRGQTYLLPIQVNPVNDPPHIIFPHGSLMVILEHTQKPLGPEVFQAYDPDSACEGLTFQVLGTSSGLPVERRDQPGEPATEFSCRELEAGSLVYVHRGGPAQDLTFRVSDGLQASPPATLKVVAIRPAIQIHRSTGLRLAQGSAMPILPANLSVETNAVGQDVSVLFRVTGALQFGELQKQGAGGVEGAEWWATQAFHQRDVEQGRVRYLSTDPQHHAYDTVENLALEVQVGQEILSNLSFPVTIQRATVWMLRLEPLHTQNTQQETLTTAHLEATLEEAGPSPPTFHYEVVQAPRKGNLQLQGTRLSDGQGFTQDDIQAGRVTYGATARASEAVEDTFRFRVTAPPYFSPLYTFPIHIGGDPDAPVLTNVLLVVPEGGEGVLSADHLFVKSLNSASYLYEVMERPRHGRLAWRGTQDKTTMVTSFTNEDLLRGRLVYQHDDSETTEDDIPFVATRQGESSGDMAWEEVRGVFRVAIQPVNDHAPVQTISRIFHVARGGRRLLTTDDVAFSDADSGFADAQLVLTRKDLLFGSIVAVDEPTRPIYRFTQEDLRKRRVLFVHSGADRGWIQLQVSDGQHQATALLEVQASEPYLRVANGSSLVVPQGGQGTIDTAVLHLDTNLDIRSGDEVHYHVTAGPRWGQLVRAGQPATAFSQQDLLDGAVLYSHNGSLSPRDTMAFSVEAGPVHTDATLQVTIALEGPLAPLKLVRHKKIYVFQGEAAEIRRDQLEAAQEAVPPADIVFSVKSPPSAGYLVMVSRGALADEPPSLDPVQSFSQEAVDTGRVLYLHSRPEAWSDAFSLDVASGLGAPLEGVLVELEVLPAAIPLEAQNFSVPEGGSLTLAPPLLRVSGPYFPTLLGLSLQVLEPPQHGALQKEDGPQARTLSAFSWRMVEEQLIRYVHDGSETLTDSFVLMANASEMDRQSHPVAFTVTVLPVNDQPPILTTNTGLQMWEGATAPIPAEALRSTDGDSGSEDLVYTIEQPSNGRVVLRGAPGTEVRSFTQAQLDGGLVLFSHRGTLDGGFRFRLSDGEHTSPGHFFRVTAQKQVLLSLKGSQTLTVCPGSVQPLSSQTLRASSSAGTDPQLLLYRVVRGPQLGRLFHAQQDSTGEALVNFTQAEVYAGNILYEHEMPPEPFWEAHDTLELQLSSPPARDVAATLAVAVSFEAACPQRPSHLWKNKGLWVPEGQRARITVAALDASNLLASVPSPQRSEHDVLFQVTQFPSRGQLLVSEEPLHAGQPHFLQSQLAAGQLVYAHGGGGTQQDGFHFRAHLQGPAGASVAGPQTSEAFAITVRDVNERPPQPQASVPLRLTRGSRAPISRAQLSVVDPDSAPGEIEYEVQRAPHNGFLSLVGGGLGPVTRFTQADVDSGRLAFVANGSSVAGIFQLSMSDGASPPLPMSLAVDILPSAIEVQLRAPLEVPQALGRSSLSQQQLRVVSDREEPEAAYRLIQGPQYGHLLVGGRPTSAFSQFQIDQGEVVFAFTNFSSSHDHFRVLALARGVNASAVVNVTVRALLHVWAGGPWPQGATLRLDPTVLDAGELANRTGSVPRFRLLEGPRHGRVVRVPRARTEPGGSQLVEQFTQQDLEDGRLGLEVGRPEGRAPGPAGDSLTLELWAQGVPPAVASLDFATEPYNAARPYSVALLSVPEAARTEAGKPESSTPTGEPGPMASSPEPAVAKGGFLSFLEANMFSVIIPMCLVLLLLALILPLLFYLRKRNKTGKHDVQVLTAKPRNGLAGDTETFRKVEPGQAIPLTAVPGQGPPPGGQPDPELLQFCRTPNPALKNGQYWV

[3] = biological target: T2, human MCSP (Melanoma-associated …); experiment: FACS on WM266-4 cells, FITC/PE anti-human Fc secondary
Protocol: Binding of the different bispecific constructs to CD3 on Jurkat (ATCC #TIB-152) cells, and the respective tumor antigen MCSP on WM266-4 cells or CEA on LS174-T cells, was determined by FACS. Briefly, cells were harvested, counted and checked for viability. 0.15-0.2 million cells per well were plated in a round-bottom 96-well plate and incubated with the indicated concentration of the bispecific constructs and controls for 30 min at 4° C. For a better comparison, the constructs were normalized to same molarity. Cells were washed with PBS containing 0.1% BSA once. After incubation with a FITC- or PE-conjugated secondary antibody for 30 min at 4° C., bound constructs were detected using a FACSCantoII (Software FACS Diva). A FITC- or PE-conjugated AffiniPure F(ab′)2 Fragment goat anti-human IgG Fcγ Fragment Specific (Jackson Immuno Research Lab #109-096-098/working solution 1:20, or #109-116-170/working solution 1:80, respectively) was used. Unless otherwise indicated, cells were fixed with 100 μl/well fixation buffer (BD #554655) for 15 min at 4° C. in the dark, centrifuged for 6 min at 400×g and kept in 200 μl/well PBS containing 0.1% BSA until analysis. EC50 values were calculated using the GraphPad Prism 5 software.
While binding of both construct to MCSP on cells was comparably good, the binding of the “inverted” construct to CD3 was reduced compared to the other construct.

| Binder | EC50 [1] [nM] | EC50 of killing (LDH release) of MV-3 cells, human PBMCs, E:T 10:1, 21 h [2] [nM] | EC50 of killing (LDH release) of WM266-4 cells, human PBMCs, E:T 10:1, 21 h [2] [nM] | EC50 [3] [nM] |
| --- | --- | --- | --- | --- |
| B1 | 1.66 | 0.0092 | 0.0331 | 0.95 |
| B2 | – | 0.0884 | 0.0539 | – |
| B3 | – | 0.0409 | 0.0284 | – |
| B4 | 6.1 | – | – | 0.57 |
